{
  "source": "patent US20230135471A1",
  "about": "“UBIQUITIN VARIANTS WITH IMPROVED AFFINITY FOR 53BP1” (Integrated DNA Technologies, Inc., priority 2021, published 2023)",
  "data": [
    {"biological_target": "53BP1 fragment (a.a. 1221-1718) fused to an adenylate cyclase fragment (two-hybrid) (UniProt Q12888)", "experiment": "cell-based or functional assay", "units": {"Experiment 1 Average Enrichment": "log2", "Experiment 1 Rep 1 Enrichment": "log2", "Experiment 1 Rep 2 Enrichment": "log2", "Experiment 2 Average Enrichment": "log2", "Experiment 2 Rep 1 Enrichment": "log2", "Experiment 2 Rep 2 Enrichment": "log2"}, "values": [
      {"substance": "i53 + R54N two-hybrid fusion (designed binder)", "Experiment 1 Average Enrichment": 0.19, "Experiment 1 Rep 1 Enrichment": -0.26, "Experiment 1 Rep 2 Enrichment": 0.65, "Experiment 2 Average Enrichment": 0.01, "Experiment 2 Rep 1 Enrichment": 0.03, "Experiment 2 Rep 2 Enrichment": -0.01},
      {"substance": "i53 + R54M two-hybrid fusion (designed binder)", "Experiment 1 Average Enrichment": 0.85, "Experiment 1 Rep 1 Enrichment": 0.82, "Experiment 1 Rep 2 Enrichment": 0.89, "Experiment 2 Average Enrichment": 0.56, "Experiment 2 Rep 1 Enrichment": 0.56, "Experiment 2 Rep 2 Enrichment": 0.55},
      {"substance": "i53 + Q40E two-hybrid fusion (designed binder)", "Experiment 1 Average Enrichment": 1.37, "Experiment 1 Rep 1 Enrichment": 1.67, "Experiment 1 Rep 2 Enrichment": 1.08, "Experiment 2 Average Enrichment": 1.18, "Experiment 2 Rep 1 Enrichment": 1.84, "Experiment 2 Rep 2 Enrichment": 0.52},
      {"substance": "i53 + K33N two-hybrid fusion (designed binder)", "Experiment 1 Average Enrichment": 0.29, "Experiment 1 Rep 1 Enrichment": 0.48, "Experiment 1 Rep 2 Enrichment": 0.1, "Experiment 2 Average Enrichment": 0.24, "Experiment 2 Rep 1 Enrichment": 0.06, "Experiment 2 Rep 2 Enrichment": 0.41},
      {"substance": "i53 + Q40D two-hybrid fusion (designed binder)", "Experiment 1 Average Enrichment": -0.31, "Experiment 1 Rep 1 Enrichment": 0.13, "Experiment 1 Rep 2 Enrichment": -0.75, "Experiment 2 Average Enrichment": 0.8, "Experiment 2 Rep 1 Enrichment": 1.27, "Experiment 2 Rep 2 Enrichment": 0.33},
      {"substance": "i53 + D39L two-hybrid fusion (designed binder)", "Experiment 1 Average Enrichment": 0.06, "Experiment 1 Rep 1 Enrichment": 0.49, "Experiment 1 Rep 2 Enrichment": -0.38, "Experiment 2 Average Enrichment": -2.16, "Experiment 2 Rep 1 Enrichment": -2.9, "Experiment 2 Rep 2 Enrichment": -1.42},
      {"substance": "i53 + S65K two-hybrid fusion (designed binder)", "Experiment 1 Average Enrichment": 1.65, "Experiment 1 Rep 1 Enrichment": 1.61, "Experiment 1 Rep 2 Enrichment": 1.69, "Experiment 2 Average Enrichment": 0.63, "Experiment 2 Rep 1 Enrichment": 0.74, "Experiment 2 Rep 2 Enrichment": 0.53},
      {"substance": "i53 + P38M two-hybrid fusion (designed binder)", "Experiment 1 Average Enrichment": -0.31, "Experiment 1 Rep 1 Enrichment": -2.07, "Experiment 1 Rep 2 Enrichment": 1.45, "Experiment 2 Average Enrichment": 1.25, "Experiment 2 Rep 1 Enrichment": 1.37, "Experiment 2 Rep 2 Enrichment": 1.13},
      {"substance": "i53 + K33M two-hybrid fusion (designed binder)", "Experiment 1 Average Enrichment": 2.34, "Experiment 1 Rep 1 Enrichment": 2.3, "Experiment 1 Rep 2 Enrichment": 2.37, "Experiment 2 Average Enrichment": 1.06, "Experiment 2 Rep 1 Enrichment": 1.51, "Experiment 2 Rep 2 Enrichment": 0.61},
      {"substance": "i53 + R74Q two-hybrid fusion (designed binder)", "Experiment 1 Average Enrichment": 2.29, "Experiment 1 Rep 1 Enrichment": 2.6, "Experiment 1 Rep 2 Enrichment": 1.98, "Experiment 2 Average Enrichment": 1.54, "Experiment 2 Rep 1 Enrichment": 1.56, "Experiment 2 Rep 2 Enrichment": 1.52},
      {"substance": "i53 + D39W two-hybrid fusion (designed binder)", "Experiment 1 Average Enrichment": 0.99, "Experiment 1 Rep 1 Enrichment": 0.9, "Experiment 1 Rep 2 Enrichment": 1.09, "Experiment 2 Average Enrichment": 0, "Experiment 2 Rep 1 Enrichment": 0.86, "Experiment 2 Rep 2 Enrichment": -0.85},
      {"substance": "i53 + K33W two-hybrid fusion (designed binder)", "Experiment 1 Average Enrichment": -1.01, "Experiment 1 Rep 1 Enrichment": -2.04, "Experiment 1 Rep 2 Enrichment": 0.01, "Experiment 2 Average Enrichment": 0.15, "Experiment 2 Rep 1 Enrichment": 0.35, "Experiment 2 Rep 2 Enrichment": -0.06},
      {"substance": "i53 + E18L two-hybrid fusion (designed binder)", "Experiment 1 Average Enrichment": 0.75, "Experiment 1 Rep 1 Enrichment": 0.75, "Experiment 1 Rep 2 Enrichment": 0.76, "Experiment 2 Average Enrichment": 0.66, "Experiment 2 Rep 1 Enrichment": 0.62, "Experiment 2 Rep 2 Enrichment": 0.71},
      {"substance": "i53 + E34T two-hybrid fusion (designed binder)", "Experiment 1 Average Enrichment": 0.12, "Experiment 1 Rep 1 Enrichment": 2.15, "Experiment 1 Rep 2 Enrichment": -1.91, "Experiment 2 Average Enrichment": -3.54, "Experiment 2 Rep 1 Enrichment": -3.26, "Experiment 2 Rep 2 Enrichment": -3.83},
      {"substance": "i53 + E18W two-hybrid fusion (designed binder)", "Experiment 1 Average Enrichment": 0.18, "Experiment 1 Rep 1 Enrichment": 0.06, "Experiment 1 Rep 2 Enrichment": 0.31, "Experiment 2 Average Enrichment": 0.75, "Experiment 2 Rep 1 Enrichment": 0.8, "Experiment 2 Rep 2 Enrichment": 0.69},
      {"substance": "i53 + E16H two-hybrid fusion (designed binder)", "Experiment 1 Average Enrichment": 0.03, "Experiment 1 Rep 1 Enrichment": 0, "Experiment 1 Rep 2 Enrichment": 0.05, "Experiment 2 Average Enrichment": -0.13, "Experiment 2 Rep 1 Enrichment": -0.21, "Experiment 2 Rep 2 Enrichment": -0.05},
      {"substance": "i53 + S49I two-hybrid fusion (designed binder)", "Experiment 1 Average Enrichment": 0.3, "Experiment 1 Rep 1 Enrichment": 0.04, "Experiment 1 Rep 2 Enrichment": 0.56, "Experiment 2 Average Enrichment": 0.17, "Experiment 2 Rep 1 Enrichment": 0.6, "Experiment 2 Rep 2 Enrichment": -0.26},
      {"substance": "i53 + S20D two-hybrid fusion (designed binder)", "Experiment 1 Average Enrichment": -0.43, "Experiment 1 Rep 1 Enrichment": -0.14, "Experiment 1 Rep 2 Enrichment": -0.72, "Experiment 2 Average Enrichment": 0.5, "Experiment 2 Rep 1 Enrichment": 0.83, "Experiment 2 Rep 2 Enrichment": 0.18},
      {"substance": "i53 + Q31Y two-hybrid fusion (designed binder)", "Experiment 1 Average Enrichment": 0.32, "Experiment 1 Rep 1 Enrichment": 0.31, "Experiment 1 Rep 2 Enrichment": 0.34, "Experiment 2 Average Enrichment": -0.05, "Experiment 2 Rep 1 Enrichment": -0.26, "Experiment 2 Rep 2 Enrichment": 0.16},
      {"substance": "i53 + S65Q two-hybrid fusion (designed binder)", "Experiment 1 Average Enrichment": 0, "Experiment 1 Rep 1 Enrichment": -0.02, "Experiment 1 Rep 2 Enrichment": 0.02, "Experiment 2 Average Enrichment": 0.12, "Experiment 2 Rep 1 Enrichment": 0.01, "Experiment 2 Rep 2 Enrichment": 0.24},
      {"substance": "i53 + N25Q two-hybrid fusion (designed binder)", "Experiment 1 Average Enrichment": 0.72, "Experiment 1 Rep 1 Enrichment": 0.24, "Experiment 1 Rep 2 Enrichment": 1.21, "Experiment 2 Average Enrichment": 0.18, "Experiment 2 Rep 1 Enrichment": 0.15, "Experiment 2 Rep 2 Enrichment": 0.22},
      {"substance": "i53 + N60Q two-hybrid fusion (designed binder)", "Experiment 1 Average Enrichment": 0.08, "Experiment 1 Rep 1 Enrichment": 0.13, "Experiment 1 Rep 2 Enrichment": 0.03, "Experiment 2 Average Enrichment": 0.29, "Experiment 2 Rep 1 Enrichment": 0.01, "Experiment 2 Rep 2 Enrichment": 0.58},
      {"substance": "i53 + S20W two-hybrid fusion (designed binder)", "Experiment 1 Average Enrichment": -0.36, "Experiment 1 Rep 1 Enrichment": -0.97, "Experiment 1 Rep 2 Enrichment": 0.25, "Experiment 2 Average Enrichment": 0.17, "Experiment 2 Rep 1 Enrichment": 0.1, "Experiment 2 Rep 2 Enrichment": 0.24},
      {"substance": "i53 + S65D two-hybrid fusion (designed binder)", "Experiment 1 Average Enrichment": 0.36, "Experiment 1 Rep 1 Enrichment": 0.02, "Experiment 1 Rep 2 Enrichment": 0.7, "Experiment 2 Average Enrichment": 0.85, "Experiment 2 Rep 1 Enrichment": 0.61, "Experiment 2 Rep 2 Enrichment": 1.1},
      {"substance": "i53 + R54C two-hybrid fusion (designed binder)", "Experiment 1 Average Enrichment": 0.06, "Experiment 1 Rep 1 Enrichment": 0.24, "Experiment 1 Rep 2 Enrichment": -0.12, "Experiment 2 Average Enrichment": -0.07, "Experiment 2 Rep 1 Enrichment": -0.43, "Experiment 2 Rep 2 Enrichment": 0.29},
      {"substance": "i53 + S65N two-hybrid fusion (designed binder)", "Experiment 1 Average Enrichment": 0.38, "Experiment 1 Rep 1 Enrichment": 0.04, "Experiment 1 Rep 2 Enrichment": 0.71, "Experiment 2 Average Enrichment": 0.34, "Experiment 2 Rep 1 Enrichment": 0.71, "Experiment 2 Rep 2 Enrichment": -0.04},
      {"substance": "i53 + D39Q two-hybrid fusion (designed binder)", "Experiment 1 Average Enrichment": -2.78, "Experiment 1 Rep 1 Enrichment": -3.1, "Experiment 1 Rep 2 Enrichment": -2.46, "Experiment 2 Average Enrichment": 0.03, "Experiment 2 Rep 1 Enrichment": -0.45, "Experiment 2 Rep 2 Enrichment": 0.51},
      {"substance": "i53 + S49M two-hybrid fusion (designed binder)", "Experiment 1 Average Enrichment": 0.84, "Experiment 1 Rep 1 Enrichment": 1, "Experiment 1 Rep 2 Enrichment": 0.69, "Experiment 2 Average Enrichment": 0.77, "Experiment 2 Rep 1 Enrichment": 0.57, "Experiment 2 Rep 2 Enrichment": 0.98},
      {"substance": "i53 + S57H two-hybrid fusion (designed binder)", "Experiment 1 Average Enrichment": 0.72, "Experiment 1 Rep 1 Enrichment": 0.54, "Experiment 1 Rep 2 Enrichment": 0.9, "Experiment 2 Average Enrichment": 0.17, "Experiment 2 Rep 1 Enrichment": -0.04, "Experiment 2 Rep 2 Enrichment": 0.39},
      {"substance": "i53 + R54F two-hybrid fusion (designed binder)", "Experiment 1 Average Enrichment": 0.76, "Experiment 1 Rep 1 Enrichment": 1.01, "Experiment 1 Rep 2 Enrichment": 0.52, "Experiment 2 Average Enrichment": 0.55, "Experiment 2 Rep 1 Enrichment": 0.66, "Experiment 2 Rep 2 Enrichment": 0.43},
      {"substance": "i53 + K48M two-hybrid fusion (designed binder)", "Experiment 1 Average Enrichment": 0.91, "Experiment 1 Rep 1 Enrichment": 0.87, "Experiment 1 Rep 2 Enrichment": 0.94, "Experiment 2 Average Enrichment": 0.67, "Experiment 2 Rep 1 Enrichment": 0.63, "Experiment 2 Rep 2 Enrichment": 0.7},
      {"substance": "i53 + S57N two-hybrid fusion (designed binder)", "Experiment 1 Average Enrichment": 1.34, "Experiment 1 Rep 1 Enrichment": 1.72, "Experiment 1 Rep 2 Enrichment": 0.96, "Experiment 2 Average Enrichment": 0.69, "Experiment 2 Rep 1 Enrichment": 0.82, "Experiment 2 Rep 2 Enrichment": 0.56},
      {"substance": "i53 + P38Q two-hybrid fusion (designed binder)", "Experiment 1 Average Enrichment": -0.25, "Experiment 1 Rep 1 Enrichment": 0.85, "Experiment 1 Rep 2 Enrichment": -1.35, "Experiment 2 Average Enrichment": 0.5, "Experiment 2 Rep 1 Enrichment": 1.18, "Experiment 2 Rep 2 Enrichment": -0.17},
      {"substance": "i53 + P38K two-hybrid fusion (designed binder)", "Experiment 1 Average Enrichment": -1.02, "Experiment 1 Rep 1 Enrichment": -2.14, "Experiment 1 Rep 2 Enrichment": 0.1, "Experiment 2 Average Enrichment": 0.25, "Experiment 2 Rep 1 Enrichment": -0.61, "Experiment 2 Rep 2 Enrichment": 1.11},
      {"substance": "i53 + S20C two-hybrid fusion (designed binder)", "Experiment 1 Average Enrichment": -0.08, "Experiment 1 Rep 1 Enrichment": -0.36, "Experiment 1 Rep 2 Enrichment": 0.2, "Experiment 2 Average Enrichment": 0.05, "Experiment 2 Rep 1 Enrichment": -0.1, "Experiment 2 Rep 2 Enrichment": 0.21},
      {"substance": "i53 + K33L two-hybrid fusion (designed binder)", "Experiment 1 Average Enrichment": 2.53, "Experiment 1 Rep 1 Enrichment": 2.4, "Experiment 1 Rep 2 Enrichment": 2.65, "Experiment 2 Average Enrichment": 1.6, "Experiment 2 Rep 1 Enrichment": 1.67, "Experiment 2 Rep 2 Enrichment": 1.53}
    ]}
  ]
}
